This is an account of results in paper PMC8852293 (Nature microbiology, 2020).

This data set deals with the molecule itself. Description: ITC. For orientation: Isothermal titration calorimetry measures the heat released or taken up as one component is titrated into another.

B1: HDP1 DNA-binding domain (HDP1 aa2991-3078) (domain or fragment, P. falciparum, UniProt A0A2I0C2C6 2991-3078, looked up)
chain: SEVQVSNINTPSSYNISARRRRRIGNNGPPSAEELNRLLNIQHLTIPEIATIYGVHRTTIARWCNIRNITSNSMNNSPGKRRKNEDNK
As to B1, the binding result is recorded as “binds”.
